Assay results taken from patent publication US20040077531A1, “Use of galanin-like peptide” (priority 2001, published 2004).

Key:
[1] = target: T1, pig-type ligand peptide (1-60) (SEQ ID NO: 31) (Sus scrofa, UniProt Q9TT95); assay: Competitive EIA of monoclonal antibodies against pig-type ligand peptide; assay type: binding; conditions: B/B0 in the presence of 100 nM immunogen; HRP-labeled SEQ ID NO: 44
T1 construct: made in house
T1 sequence (Q9TT95 23-82): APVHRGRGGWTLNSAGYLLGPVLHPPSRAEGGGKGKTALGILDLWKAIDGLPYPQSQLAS

[2] = target: T2, rat-type galanin (SEQ ID NO: 61) (Rattus norvegicus, UniProt P10683); assay: Competitive EIA of monoclonal antibodies against rat galanin; assay type: binding; conditions: B/B0 in the presence of 100 nM immunogen; HRP-labeled SEQ ID NO: 44
T2 sequence (P10683 33-61 limits assumed): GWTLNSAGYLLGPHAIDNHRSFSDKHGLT

Row | Molecule | Reactivity Pig Ligand (SEQ ID NO: 31) [1] | Reactivity Rat Galanin (SEQ ID NO: 61) [2]
1 | 1 (protein, Rat) MELAPVNLSEGNGSDPEPPAEPRPLFGIGVENFITLVVFGLIFAMGVLGNSLVITVLARSKPGKPRSTTNLFILNLSIADLAYLLFCIPFQATVYALPTWVLGAFICKFIHYFFTVSMLVSIFTLAAMSVDRYVAIVHSRRSSSLRVSRNALLGVGFIWALSIAMASPVAYYQRLFHRDSNQTFCWEHWPNQLHKKAYVVCTFVFGYLLPLLLICFCYAKVLNHLHKKLKNMSKKSEASKKKTAQTVLVVVVVFGISWLPHHVIHLWAEFGAFPLTPASFFFRITAHCLAYSNSSVNPIIYAFLSENFRKAYKQVFKCRVCNESPHGDAKEKNRIDTPPSTNCTHV | − (0.80 ≦ (B/B0)) | − (0.80 ≦ (B/B0))
2 | 2 (protein, Rat) MNGSGSQGAENTSQEGGSGGWQPEAVLVPLFFALIFLVGTVGNALVLAVLLRGGQAVSTTNLFILNLGVADLCFILCCVPFQATIYTLDDWVFGSLLCKAVHFLIFLTMHASSFTLAAVSLDRYLAIRYPLHSRELRTPRNALAAIGLIWGLALLFSGPYLSYYRQSQLANLTVCHPAWSAPRRRAMDLCTFVFSYLLPVLVLSLTYARTLRYLWRTVDPVTAGSGSQRAKRKVTRMIIIVAVLFCLCWMPHHALILCVWFGRFPLTRATYALRILSHLVSYANSCVNPIVYALVSKHFRKGFRKICAGLLRPAPRRASGRVSILAPGNHSGSMLEQESTDLTQVSEAAGPLVPPPALPNCTASSRTLDPAC | + ((B/B0) < 0.50) | − (0.80 ≦ (B/B0))
3 | 3 (protein, Rat) MADIQNISLDSPGSVGAVAVPVIFALIFLLGMVGNGLVLAVLLQPGPSAWQEPSSTTDLFILNLAVADLCFILCCVPFQAAIYTLDAWLFGAFVCKTVHLLIYLTMYASSFTLAAVSLDRYLAVRHPLRSRALRTPRNARAAVGLVWLLAALFSAPYLSYYGTVRYGALELCVPAWEDARRRALDVATFAAGYLLPVAVVSLAYGRTLCFLWAAVGPAGAAAAEARRRATGRAGRAMLAVAALYALCWGPHHALILCFWYGRFAFSPATYACRLASHCLAYANSCLNPLVYSLASRHFRARFRRLWPCGRRRHRHHHRAHRALRRVQPASSGPAGYPGDARPRGWSMEPRGDALRGGGETRLTLSPRGPQ | ± (0.50 ≦ (B/B0) < 0.80) | − (0.80 ≦ (B/B0))
4 | 4 (protein, Rat) MELAPVNLSEGNGSDPEPPAEPRPLFGIGVENFITLVVFGLIFAMGVLGNSLVITVLARSKPGKPRSTTNLFILNLSIADLAYLLFCIPFQATVYALPTWVLGAFICKFIHYFFTVSMLVSIFTLAAMSVDRYVAIVHSRRSSSLRVSRNALLGVGFIWALSIAMASPVAYYQRLFHRDSNQTFCWEHWPNQLHKKAYVVCTFVFGYLLPLLLICFCYAKVLNHLHKKLKNMSKKSEASKKKTAQTVLVVVVVFGISWLPHHVIHLWAEFGAFPLTPASFFFRITAHCLAYSNSSVNPIIYAFLSENFRKAYKQVFKCRVCNESPHGDAKEKNRIDTPPSTNCTHV | + ((B/B0) < 0.50) | − (0.80 ≦ (B/B0))
5 | 5 (protein, Rat) MNGSGSQGAENTSQEGGSGGWQPEAVLVPLFFALIFLVGTVGNALVLAVLLRGGQAVSTTNLFILNLGVADLCFILCCVPFQATIYTLDDWVFGSLLCKAVHFLIFLTMHASSFTLAAVSLDRYLAIRYPLHSRELRTPRNALAAIGLIWGLALLFSGPYLSYYRQSQLANLTVCHPAWSAPRRRAMDLCTFVFSYLLPVLVLSLTYARTLRYLWRTVDPVTAGSGSQRAKRKVTRMIIIVAVLFCLCWMPHHALILCVWFGRFPLTRATYALRILSHLVSYANSCVNPIVYALVSKHFRKGFRKICAGLLRPAPRRASGRVSILAPGNHSGSMLEQESTDLTQVSEAAGPLVPPPALPNCTASSRTLDPAC | ± (0.50 ≦ (B/B0) < 0.80) | − (0.80 ≦ (B/B0))
6 | 6 (protein, Rat) MADIQNISLDSPGSVGAVAVPVIFALIFLLGMVGNGLVLAVLLQPGPSAWQEPSSTTDLFILNLAVADLCFILCCVPFQAAIYTLDAWLFGAFVCKTVHLLIYLTMYASSFTLAAVSLDRYLAVRHPLRSRALRTPRNARAAVGLVWLLAALFSAPYLSYYGTVRYGALELCVPAWEDARRRALDVATFAAGYLLPVAVVSLAYGRTLCFLWAAVGPAGAAAAEARRRATGRAGRAMLAVAALYALCWGPHHALILCFWYGRFAFSPATYACRLASHCLAYANSCLNPLVYSLASRHFRARFRRLWPCGRRRHRHHHRAHRALRRVQPASSGPAGYPGDARPRGWSMEPRGDALRGGGETRLTLSPRGPQ | + ((B/B0) < 0.50) | − (0.80 ≦ (B/B0))
7 | 8 (protein, Porcine) MPRGCALLLASLLLASALSATLGLGSPVKEKRGWTLNSAGYLLGPHAIDNHRSFHDKYGLAGKRELEPEDEARPGGFDRLQSEDKAIRTIMEFLAFLHLKEAGALGRLPGLPSAASSEDAGQS | − (0.80 ≦ (B/B0)) | − (0.80 ≦ (B/B0))
